{"source": "patent US7056679", "about": "(ANTYRA, dated 2006)", "note": "No end group written: not given here.", "data": [{"biological_target": "T1, DGI-2 (UniProt Q15004 1-111, limits assumed)", "T1 construct": "Soluble recombinant DGI-2 made by in vitro translation (RTS, pIVEX2.3-MCS vector) and coated on plates for the ELISA; vector tag not described; also called KIAA0101; DGI-2 polypeptide", "T1 sequence (looked up)": "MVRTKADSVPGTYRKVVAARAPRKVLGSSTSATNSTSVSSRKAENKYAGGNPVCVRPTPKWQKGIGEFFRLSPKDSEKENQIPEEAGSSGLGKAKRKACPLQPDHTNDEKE", "test": "phage ELISA, coated DGI-2", "description": "For analysis of individual target binders, colonies were picked and phage prepared as described above using helper phage, M13KO7. Ninety-six-well microtiter plates were coated with 500 ng/well of specific target protein, 500 ng/well lactate dehydrogenase (LDH) irrelevant or non-specific target, 500 ng/well of positive control antibody raised against ETAG, and negative control of non-fat milk powder-PBS 2% at 4° C. overnight. Plates were then blocked with 350 microliters/well PBS containing 2% non-fat milk for 1 hr at room temperature. One hundred microliters per well of phage from isolated clones were added and plates were incubated at room temperature for 2 hr after centrifuging samples for 20 minutes at 3500 rpm at 4° C. The phage solution was then removed, and the wells were washed three times with PBS at room temperature. Antibody raised against M13 conjugated to horseradish peroxidase (Pharmacia) was diluted 1:3000 in PBS-Tween and added to each well (100 µl/well). Incubation was for 1 hr at room temperature, followed by washing with PBS-(0.5%) Tween 3 times as described. Color was developed by addition of ABTS solution (100 µl/well; Boehringer, Indianapolis, Ind.). Plates were analyzed at 405 nm. A clone was considered \"positive\" if the $A405$ of the well was $\\geq$2-fold over background.", "values": [{"binder": "GASRVVDVGWRFWGKLWQRS (on M13 phage, pIII fusion with E-tag)", "note": "[DGI-2-20F-PP-G5]", "binding result": "binds"}, {"binder": "SWRLWVSGELQGDRRKGLRG (on M13 phage, pIII fusion with E-tag)", "note": "[DGI-2-20R-3-B7]", "binding result": "binds"}, {"binder": "GSVLERGCLEFSGFCFSLGH (on M13 phage, pIII fusion with E-tag)", "note": "[DGI-2-20F-3-C1]", "binding result": "binds"}, {"binder": "GSTRLRVTVRFCSETGTPGC (not fully specified; cysteine pairing not given here, on M13 phage, pIII fusion with E-tag)", "note": "[DGI-2-20F-PP-G6]", "binding result": "binds"}, {"binder": "LFRFSGTGMASLPCVGWHLV (on M13 phage, pIII fusion with E-tag)", "note": "[DGI-2-20F-PP-B6]", "binding result": "binds"}, {"binder": "TFTRDVAGPAVSFVRLHSWN (on M13 phage, pIII fusion with E-tag)", "note": "[DGI-2-20F-PP-A9]", "binding result": "binds"}, {"binder": "SLFERSARSRYHGSPDCNGS (on M13 phage, pIII fusion with E-tag)", "note": "[DGI-2-20F-PP-A3]", "binding result": "binds"}, {"binder": "RVSYEMLGRRRRSMHGSSMR (on M13 phage, pIII fusion with E-tag)", "note": "[DGI-2-20F-PP-A4]", "binding result": "binds"}, {"binder": "MSTLQGPGHLFQMLRRASLG (on M13 phage, pIII fusion with E-tag)", "note": "[DGI-2-20R-4-H12]", "binding result": "binds"}, {"binder": "WVVALRRIRLGLRRGVECLL (on M13 phage, pIII fusion with E-tag)", "note": "[DGI-2-20F-PP-D5]", "binding result": "binds"}, {"binder": "GGDLGEQGVQLCPDVVRGGSL (on M13 phage, pIII fusion with E-tag)", "note": "[DGI-2-20F-PP-A7]", "binding result": "binds"}, {"binder": "GNKCFPPHDLFWDPCDQLQS (not fully specified (bridges); cysteine pairing not given here, on M13 phage, pIII fusion with E-tag)", "note": "[DGI-2-20R-4-F6]", "binding result": "binds"}, {"binder": "GLYQRGLAPRCRGERFGVRN (on M13 phage, pIII fusion with E-tag)", "note": "[DGI-2-20F-PP-C2]", "binding result": "binds"}, {"binder": "DRHRAFVAEGLDGFRHSTGV (on M13 phage, pIII fusion with E-tag)", "note": "[DGI-2-20F-PP-D4]", "binding result": "binds"}, {"binder": "VSGVPDGSMRAAQLASGYWC (on M13 phage, pIII fusion with E-tag)", "note": "[DGI-2-20F-PP-G2]", "binding result": "binds"}, {"binder": "CRNFGVIWGAGWVSPGCEDI (not fully specified, on M13 phage, pIII fusion with E-tag)", "note": "[DGI-2-20E-3-A1]", "binding result": "binds"}, {"binder": "TPVAISIPAGVCSTSVCGRD (not fully specified; cysteine pairing not given here, on M13 phage, pIII fusion with E-tag)", "note": "[DGI-2-20F-PP-C11]", "binding result": "binds"}, {"binder": "PVYRVAMCRISVGCSAGAWF (not fully specified; cysteine pairing not given here, on M13 phage, pIII fusion with E-tag)", "note": "[DGI-2-20F-PP-C12]", "binding result": "binds"}, {"binder": "SYRNFAMQSSLQVRRGSVVEDGTCWWEGVRCYSG (on M13 phage, pIII fusion with E-tag)", "note": "[DGI-2-40F-4-F6]", "binding result": "binds"}, {"binder": "RWSICRGLQYSIPGCAVEDLSDVMA (on M13 phage, pIII fusion with E-tag)", "note": "[DGI-2-20C-4-H316]", "binding result": "binds"}, {"binder": "VTGTRFRGFAVACVRMGTWH (on M13 phage, pIII fusion with E-tag)", "note": "[DGI-2-20F-PP-F2]", "binding result": "binds"}, {"binder": "RRFVRCSVPVALRSAVPVSV (on M13 phage, pIII fusion with E-tag)", "note": "[DGI-2-20F-PP-A10]", "binding result": "binds"}, {"binder": "QGSAHVVRPPGVYDVPWKVGMFFHPQNWPNSWGRAYFRSG (on M13 phage, pIII fusion with E-tag)", "note": "[DGI-2-40F-3-D12]", "binding result": "binds"}, {"binder": "LSLLSVVVRSMGASAPQRQV (on M13 phage, pIII fusion with E-tag)", "note": "[DGI-2-20F-3-A7]", "binding result": "binds"}, {"binder": "TSCQVMFLAGQHLLSRVPRL (on M13 phage, pIII fusion with E-tag)", "note": "[DGL-2-20R-3-B6]", "binding result": "binds"}, {"binder": "DRSRAPLCADKSGRWQRYRR (on M13 phage, pIII fusion with E-tag)", "note": "[DGI-2-20F-PP-C10]", "binding result": "binds"}, {"binder": "VGHLLSRCAHHSPGMGASPYG (on M13 phage, pIII fusion with E-tag)", "note": "[DGI-2-20F-PP-B11]", "binding result": "binds"}, {"binder": "GLEPVPFQTDKRIAMGWTREWLVNGYGAAHRRDARMQSGH (on M13 phage, pIII fusion with E-tag)", "note": "[DGI-2-40F-3-D6]", "binding result": "binds"}, {"binder": "SLLCVVCRPVSGGRALGGVP (not fully specified; cysteine pairing not given here, on M13 phage, pIII fusion with E-tag)", "note": "[DGI-2-20F-PP-B42]", "binding result": "binds"}, {"binder": "EGQRVVFLFGALVAGLCWRDR (on M13 phage, pIII fusion with E-tag)", "note": "[DGI-2-20F-PP-F3]", "binding result": "binds"}, {"binder": "VRAVYSRDAYNEVGRWMRVGI (on M13 phage, pIII fusion with E-tag)", "note": "[DGI-2-20F-PP-D9]", "binding result": "binds"}, {"binder": "VVHTRAWGSWAYGFVLRNRG (on M13 phage, pIII fusion with E-tag)", "note": "[DGI-2-20F-PP-F10]", "binding result": "binds"}, {"binder": "YAMSSRECGIRNSGLILSMW (on M13 phage, pIII fusion with E-tag)", "note": "[DGI-2-20F-PP-C9]", "binding result": "binds"}, {"binder": "RFWSVSYQGGRVMCREWGYCLPI (not fully specified (bridges); cysteine pairing not given here, on M13 phage, pIII fusion with E-tag)", "note": "[DGI-2-40F-3-C92]", "binding result": "binds"}, {"binder": "GLRACDTYLGFCVGARRIDD (on M13 phage, pIII fusion with E-tag)", "note": "[DGI-2-20F-3-B102]", "binding result": "binds"}, {"binder": "SLSLYWDAQVGCEVFWGYCV (not fully specified; cysteine pairing not given here, on M13 phage, pIII fusion with E-tag)", "note": "[DGI-2-20R-3-C10]", "binding result": "binds"}, {"binder": "LSHPMSPLRAASQMALTQGV (on M13 phage, pIII fusion with E-tag)", "note": "[DGI-2-20R-4-H7]", "binding result": "binds"}, {"binder": "CYLSRLFRSGQGIGQFGHVE (on M13 phage, pIII fusion with E-tag)", "note": "[DGI-2-20F-PP-A82]", "binding result": "binds"}, {"binder": "LHFGSVMGWRPPGSLWSRPFGQVHPRSWSGS (on M13 phage, pIII fusion with E-tag)", "note": "[DGI-2-40F-3-D11]", "binding result": "binds"}, {"binder": "ALRSLGSGGFGWQAGRASPQGMTHFPYFGWSGMPTARVRP (on M13 phage, pIII fusion with E-tag)", "note": "[DGI-2-40F-3-D7]", "binding result": "binds"}, {"binder": "ACSVGTALVFPQRWWYLGRS (on M13 phage, pIII fusion with E-tag)", "note": "[DGL-2-20R-3-D6]", "binding result": "binds"}, {"binder": "LTPYSLARSWLSGRPSTGAT (on M13 phage, pIII fusion with E-tag)", "note": "[DGI-2-20F-3-C12]", "binding result": "binds"}, {"binder": "TANGHRYGGCGLWCKWMSGM (not fully specified; cysteine pairing not given here, on M13 phage, pIII fusion with E-tag)", "note": "[DGI-2-20R-4-E2]", "binding result": "binds"}]}]}
